Source: US20240148894A1, “USE OF ANTIBODY-DRUG CONJUGATE TARGETING HER2 IN TREATMENT OF SPECIFIC BREAST CANCER” (priority 2021, published 2024)
Several values for one entry are separate records, joined by “and”; a condition that tells them apart may be missing. Identical values can stand only once. Entries after “also recorded” stand apart in the source; their conditions may differ.

System: HER2-positive (IHC 3+ or FISH +) locally advanced or metastatic breast cancer
Assay: Parallel-group, randomized, open-label clinical trial; progression-free survival (PFS), ITT and metastatic-site subgroup analyses
Format: in vivo, human
Method: This study was a parallel-group, randomized, open-label clinical trial to evaluate the efficacy and safety of Disitamab vedotin as compared to treatment with lapatinib and capecitabine in patients with HER2-positive (positive being defined as IHC 3+ or FISH +) locally advanced or metastatic breast cancer. Subjects were randomized 1:1.
The primary endpoint indicator of the study was PFS (progression-free survival), which was evaluated for 6 weeks (±7 days).
Disitamab vedotin, namely RC48-ADC (average DAR value: 4±0.5), was administered at a dose of 2.0 mg/kg via intravenous drip, once every 2 weeks, 42 days as one treatment cycle.

[1] = overall ITT, RC48-ADC relative to capecitabine+lapatinib

B1: Disitamab vedotin (conjugate, chains of the INN, looked up)
VH: EVQLVQSGAEVKKPGATVKISCKVSGYTFTDYYIHWVQQAPGKGLEWMGRVNPDHGDSYYNQKFKDKATITADKSTDTAYMELSSLRSEDTAVYFCARNYLFDHWGQGTLVTVSS
VL: DIQMTQSPSSVSASVGDRVTITCKASQDVGTAVAWYQQKPGKAPKLLIYWASIRHTGVPSRFSGSGSGTDFTLTISSLQPEDFATYYCHQFATYTFGGGTKVEIK
modifications: vedotin (MMAE) payload
Disease progression or death, % (Bone metastasis: No (N=63 vs 68), ITT): 63.5%
Censoring, % (Bone metastasis: No, ITT): 36.5%
Progression-free survival time, Median (95% CI) (Bone metastasis: No, ITT, Kaplan-Meier): 9.6 months and 9.6 (6.9, 13.1) months
COX proportional hazards model (without considering stratification factors) Hazard ratio (95% CI) (Bone metastasis: No, RC48-ADC relative to capecitabine+lapatinib): 0.76 (0.50, 1.15)
Disease progression or death, % (Bone metastasis: Yes (N=36 vs 33), ITT): 77.8%
Censoring, % (Bone metastasis: Yes, ITT): 22.2%
Progression-free survival time, Median (95% CI) (Bone metastasis: Yes, ITT, Kaplan-Meier): 7.8 months and 7.8 (2.8, 12.4) months
COX proportional hazards model (without considering stratification factors) Hazard ratio (95% CI) (Bone metastasis: Yes, RC48-ADC relative to capecitabine+lapatinib): 0.95 (0.56, 1.61)
Disease progression or death, % (Liver metastasis: No (N=61 vs 58), ITT): 75.4%
Censoring, % (Liver metastasis: No, ITT): 24.6%
Progression-free survival time, Median (95% CI) (Liver metastasis: No, ITT, Kaplan-Meier): 7.0 months and 7.0 (5.5, 9.9) months
COX proportional hazards model (without considering stratification factors) Hazard ratio (95% CI) (Liver metastasis: No, RC48-ADC relative to capecitabine+lapatinib): 1.26 (0.83, 1.91)
Disease progression or death, % (Liver metastasis: Yes (N=38 vs 43), ITT): 57.9%
Censoring, % (Liver metastasis: Yes, ITT): 42.1%
Progression-free survival time, Median (95% CI) (Liver metastasis: Yes, ITT, Kaplan-Meier): 12.5 months and 12.5 (7.1, 14.1) months
COX proportional hazards model (without considering stratification factors) Hazard ratio (95% CI) (Liver metastasis: Yes, RC48-ADC relative to capecitabine+lapatinib): 0.41 (0.24, 0.71)
Disease progression or death, % (Lung metastasis: No (N=55 vs 49), ITT): 61.8%
Censoring, % (Lung metastasis: No, ITT): 38.2%
Progression-free survival time, Median (95% CI) (Lung metastasis: No, ITT, Kaplan-Meier): 10.9 months and 10.9 (5.7, 13.7) months
COX proportional hazards model (without considering stratification factors) Hazard ratio (95% CI) (Lung metastasis: No, RC48-ADC relative to capecitabine+lapatinib): 0.68 (0.42, 1.07)
Disease progression or death, % (Lung metastasis: Yes (N=44 vs 52), ITT): 77.3%
Censoring, % (Lung metastasis: Yes, ITT): 22.7%
Progression-free survival time, Median (95% CI) (Lung metastasis: Yes, ITT, Kaplan-Meier): 8.2 months and 8.2 (5.6, 12.2) months
COX proportional hazards model (without considering stratification factors) Hazard ratio (95% CI) (Lung metastasis: Yes, RC48-ADC relative to capecitabine+lapatinib): 1.05 (0.67, 1.65)
Disease progression or death, % (Viscera metastasis (CRF): No (N=22 vs 23), ITT): 68.2%
Censoring, % (Viscera metastasis (CRF): No, ITT): 31.8%
Progression-free survival time, Median (95% CI) (Viscera metastasis (CRF): No, ITT, Kaplan-Meier): 9.6 months and 9.6 (4.3, 14.2) months
Disease progression or death, % (Viscera metastasis (CRF): Yes (N=77 vs 78), ITT): 68.8%
Censoring, % (Viscera metastasis (CRF): Yes, ITT): 31.2%
Progression-free survival time, Median (95% CI) (Viscera metastasis (CRF): Yes, ITT, Kaplan-Meier): 9.3 months and 9.3 (6.9, 12.2) months
relative risk reduction of disease progression or death (Viscera metastasis: No (as printed in Table 7), vs capecitabine+lapatinib): 24% chance of
COX proportional hazards model (without considering stratification factors) Hazard ratio (95% CI) (Viscera metastasis: No, RC48-ADC relative to capecitabine+lapatinib): 1.02 (0.51, 2.05)
COX proportional hazards model (without considering stratification factors) Hazard ratio (95% CI) (Viscera metastasis: Yes, RC48-ADC relative to capecitabine+lapatinib): 0.76 (0.53, 1.10)
COX proportional hazards model (considering stratification factors) Hazard ratio (95% CI) [1]: 0.82 (0.59, 1.13)
COX proportional hazards model (without considering stratification factors) Hazard ratio (95% CI) [1]: 0.82 (0.60, 1.14)
PFS comparison with control group, in words (overall sample of breast cancer patients): did not show a statistically significant advantage
Censoring, % (overall, ITT analysis set): 31.3%
Disease progression or death, % (overall, ITT analysis set (N=99 vs 101)): 68.7%
Progression-free survival, Median (95% CI) (overall, ITT analysis set, Kaplan-Meier): 9.3 months and 9.3 (6.9, 12.2) months
PFS comparison with control group, in words (patients with bone metastasis): no very significant difference; also recorded: no statistically significant difference
median progression-free survival time longer than control treatment group by (patients with liver metastasis, vs capecitabine+lapatinib): 6.9 months
PFS comparison with control group, in words (patients with lung metastasis): no significant difference
progression-free survival time shorter than capecitabine+lapatinib by (patients with lung metastasis): 0.1 months
PFS comparison with control group, in words (patients with viscera metastasis): did not show statistical differences; also recorded: no statistically significant difference
median progression-free survival time longer than control treatment group by (patients with viscera metastasis, vs lapatinib+capecitabine): 2.4 months
PFS comparison with control group, in words (patients without bone metastasis): did not show a statistically significant advantage; also recorded: no very significant difference; also recorded: no statistically significant difference
relative risk reduction of disease progression or death (patients without bone metastasis, vs capecitabine+lapatinib): 24% chance of
median progression-free survival time longer than control treatment group by (patients without bone metastasis, vs lapatinib+capecitabine): 1.6 months
median progression-free survival time shorter than control treatment group by (patients without liver metastasis, vs capecitabine+lapatinib): 2.0 months
median progression-free survival time longer than control treatment group by (patients without lung metastasis, vs capecitabine+lapatinib): 5.3 months
PFS comparison with control group, in words (patients without viscera metastasis): did not show a statistically significant advantage; also recorded: no statistical difference; also recorded: no statistically significant difference
median progression-free survival time longer than control treatment group by (patients without viscera metastasis, vs lapatinib+capecitabine): 1.5 months
